Test results from IntAct's records for PubMed 18715118.

B1: Metallothionein expression activator (Saccharomyces cerevisiae), P21192 (parent)
chain: MDNVVDPWYINPSGFAKDTQDEEYVQHHDNVNPTIPPPDNYILNNENDDGLDNLLGMDYYNIDDLLTQELRDLDIPLVPSPKTGDGSSDKKNIDRTWNLGDENNKVSHYSKKSMSSHKRGLSGTAIFGFLGHNKTLSISSLQQSILNMSKDPQPMELINELGNHNTVKNNNDDFDHIRENDGENSYLSQVLLKQQEELRIALEKQKEVNEKLEKQLRDNQIQQEKLRKVLEEQEEVAQKLVSGATNSNSKPGSPVILKTPAMQNGRMKDNAIIVTTNSANGGYQFPPPTLISPRMSNTSINGSPSRKYHRQRYPNKSPESNGLNLFSSNSGYLRDSELLSFSPQNYNLNLDGLTYNDHNNTSDKNNNDKKNSTGDNIFRLFEKTSPGGLSISPRINGNSLRSPFLVGTDKSRDDRYAAGTFTPRTQLSPIHKKRESVVSTVSTISQLQDDTEPIHMRNTQNPTLRNANALASSSVLPPIPGSSNNTPIKNSLPQKHVFQHTPVKAPPKNGSNLAPLLNAPDLTDHQLEIKTPIRNNSHCEVESYPQVPPVTHDIHKSPTLHSTSPLPDEIIPRTTPMKITKKPTTLPPGTIDQYVKELPDKLFECLYPNCNKVFKRRYNIRSHIQTHLQDRPYSCDFPGCTKAFVRNHDLIRHKISHNAKKYICPCGKRFNREDALMVHRSRMICTGGKKLEHSINKKLTSPKKSLLDSPHDTSPVKETIARDKDGSVLMKMEEQLRDDMRKHGLLDPPPSTAAHEQNSNRTLSNETDAL

Variants of: B1
Details: with xpo1_yeast CRM1, P30822

effect of a mutation on the interaction	Variant
decreasing interaction	S122D
disrupting interaction	S122D;S137D
disrupting interaction	F127V
decreasing interaction	S137D

Variants of: B1
Details: with cbk1_yeast CBK1, P53894
Chain of cbk1_yeast CBK1, P53894 (P53894 whole entry): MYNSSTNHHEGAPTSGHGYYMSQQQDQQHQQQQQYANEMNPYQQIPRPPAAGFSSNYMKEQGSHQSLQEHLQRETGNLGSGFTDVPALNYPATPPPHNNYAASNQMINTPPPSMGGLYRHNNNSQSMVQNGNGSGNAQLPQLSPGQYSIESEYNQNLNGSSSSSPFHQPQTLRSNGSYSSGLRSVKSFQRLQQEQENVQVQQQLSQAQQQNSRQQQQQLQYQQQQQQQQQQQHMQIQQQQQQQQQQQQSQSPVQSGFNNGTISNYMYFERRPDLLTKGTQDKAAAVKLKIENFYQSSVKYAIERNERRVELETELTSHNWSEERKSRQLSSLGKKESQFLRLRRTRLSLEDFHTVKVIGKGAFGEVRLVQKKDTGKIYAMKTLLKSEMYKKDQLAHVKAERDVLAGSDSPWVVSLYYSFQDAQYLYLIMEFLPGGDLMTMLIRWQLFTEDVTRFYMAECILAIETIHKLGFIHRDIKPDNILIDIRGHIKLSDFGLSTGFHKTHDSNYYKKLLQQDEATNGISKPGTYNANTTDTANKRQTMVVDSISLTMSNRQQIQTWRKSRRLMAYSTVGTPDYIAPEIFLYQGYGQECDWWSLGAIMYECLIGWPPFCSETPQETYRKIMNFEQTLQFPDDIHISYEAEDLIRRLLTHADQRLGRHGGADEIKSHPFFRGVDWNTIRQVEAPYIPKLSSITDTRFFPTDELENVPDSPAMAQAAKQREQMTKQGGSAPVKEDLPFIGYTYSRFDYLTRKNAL

effect of a mutation on the interaction	Variant
disrupting interaction	S113A;S122A;S137A
disrupting interaction	S113A;H117A;S137A

Variants of: B1
Details: with xpo1_yeast CRM1, P30822
Remark: another data set of the same source

effect of a mutation on the interaction	Variant
decreasing interaction	F127V
